Results as given in a protein production outcome set (Wang et al. 2014).

Experiment: label from the status in PepcDB records

For “MCKNSQYLHLPDEIPQQLMLLWESSDEVWGFKDLDSHYLYANNPFIELLNFPPEFCIKGLLDDELPHPSFAKFSSQFREQELLAAITKKRVSSIEMHYFGREQKLQPYLFDKFPLLNSKKECLGIIF”, the protein production was “failed”.

In the case of “MIDGQIRLGHSMPWGMVGGGQGSQIGYIHRSAALRDGSFQLVAGAFDLDPERGRQFGQRLGVSAQRCYPDYRAMFEAEARRPDGIRAVSIATPNNTHFDICRAALHAGLHVVCEKPLCFTTAEAEALQRLAGEQRKIVGVTYGYAGHQLIEHAREMIVRGDLGEIRIVQMQFSHGFHSEGVEAANPAARWRMDPTFAGPSYVLGDIGTHPLYLSEVMLPGLKIARLLCSRQSFVKTRAPLEDNAFTIMEYQGGAIGYAWSCAVNAGSMHGQKIRVIGSKASLEWWDEHPNQLRYEVQGQPAQVLDRGMGYLHPAALHDDRIGAGHPEGLFEAWSNLYYRFALAMDATDRDDAAALRGIRYPDIHAGVEGVRWVENCVRSADAGGVWVDYR”, the protein production is reported as “failed”.

With “MDAKEDVRPTGRGGRGVTAKSHVIVTSNMSVRQFLDVKYTTMNLNLFLSLDPIVDDNQNTLIKKDCSGRVDKDKGIVGDAQVFYTNGFKMSAMVTKHTNRSYLNNPTSIRRKLFDDAGVKGSNGVVRFHSVETSNVVTISVVNDFYNNEMGDDGVTNVTGIIRLARSTNGDSN” the protein production was “failed”.

With “MERAAFGKLVQALRREHRDEKGRVWTQEVLAERTQLPKRTIERIENGSLAHLDADILLRLADALELTIGERREFFFAATGIIEQKSATYKRSPEESLQYLIDMIRNMNVPAFVTDQYVNIIAANMITIRFFNIPMELIETAPLLPHGYNLMRVVFGTEYDFRRVVGTMWDEVARHNMQLFRAISLRVRADGYFVELLDNLMQYREFKRFWERAHLETEDTSAENFWYQYTHPVYGLLSYVSSRSQIPTSMGLLSMHTYIPLSPATTDLFAKLSTVANQDVIRLAPWPRSNG” the protein production was “not failed”.

In the case of “MIKVKSPGRVNLIGEHTDYTYGYVMPMAINLYTKIEAEKHGEVILYSEHFGEERKFSLNDLRKENSWIDYVKGIFWVLKESDYEVGGIKGRVSGNLPLGAGLSSSASFEVGILETLDKLYNLKLDSLSKVLLAKKAENEFVGVPCGILDQFAVVFGREGNVIFLDTHTLDYEYIPFPKDVSILVFYTGVRRELASSEYAERKHIAEESLKILGKGSSKEVREGELSKLPPLHRKFFGYIVRENARVLEVRDALKEGNVEEVGKILTTAHWDLAKNYEVSCKELDFFVERALKLGAYGARLTGAGFGGSAIALVDKEDAETIGEEILREYLKRFPWKARHFIVEPSDGVGI”, the protein production is reported as “not failed”.

With “MALAVTSSSTAISGSSFSRSGASSESKALQICSIRLSDRTHLSQRRYSMKPLNAESHSRSESWVTRASTLIAPEVEEKGGEVEDFEQLAKKLEDASPLEIMDKALERFGDQIAIAFSGAEDVALIEYARLTGKPFRVFSLDTGRLNPETYRLFDAVEKQYGIRIEYMFPDAVEVQALVRNKGLFSFYEDGHQECCRVRKVRPLRRALKGLKAWITGQRKDQSPGTRSEIPIVQVDPVFEGLDGGVGSLVKWNPLANVEGADVWNFLRTMDVPVNALHAQGYVSIGCEPCTRPVLPGQHEREGRWWWEDAKAKECGLHKGNIKEEDGAADSKPAAVQEIFESNNVVALSKGGVENLLKLENRKEAWLVVLYAPWCPFCQAMEASYIELAEKLAGKGVKVAKFRADGEQKEFAKQELQLGSFPTILLFPKRAPRAIKYPSEHRDVDSLMSFVNLLR” the protein production was “failed”.

In the case of “MLSAYFSGSETGLLSLNKYRLRFLSEQGNKGAKKAEKLLEKPDTLLSFILIFNNLVNISASAIATVIGMRLYGDAGVAIATGLLTFVMLVFSEIFPKTVAAMHAEKVSFFSSHILTSLLKIFYPLVWLMNIFTKSLMQIVGLKLDMQKQVISSEELRSIVSEAGEATPNEQHPQMLLSILDMETVTVDDIMVPRNEIGGINIDDDWRAIMRQLNHAAHNRVVLYKGSLDEQVLGILRVREAFRLLLEKNEFTKETLIRAADEVYFIPESTPLKTQLANFRTNKERIGLVVDEYGDIKGLVTLEDILEEIVGDFTTSTAPSIDKEVIQQSDGSMIIDGSANLRDLNKMFNWELDTEDARTFNGLILEHLEEIPDEGTICEIDGLLITILEVGDNMIKQAKVVKL”, the protein production is reported as “not failed”.

For “MKSLQIYLFLFLSVFALGACIQNDIPYPYIKGEITAFEVEGQTGDAEINKNSRTIVVEVGDEVDIEELRITRFVVNEEATYSIDEQYCVSPNKFPSAGFSALADLPAGADTRVDFSKTVPVLLRTYQDYQWMITVKQTIERVVEVENQALPAIIDDKNHTVLVYVSQKQDLSAVKITKMILGGSKATITPDPSTVTNFRRPQEFVVNRFDKEELWTVDVVRTTSTGTTGSADVWATRATLNGGMKQGTTPRVEYRKKSEDTWTVVPETDVKLESGTTFSTTLTGLQDGTDYVWRVVVEEVPSTESGFTTEKIQEIPNLNFDTWSQNPTGTFKKSWYPNADGSNSFWATGNDGVTSSLAGSRDSSTRPEEKSVVNGKAAYMVTLGSVPLVGVAAGNLFIGDYKTNAQSPLEHHHHHH”, the protein production was “failed”.

For “PKKIMLVAGHGYNDPGAVGNGTNERDFIRKYITPNIAKYLRHAGHEVALYGGSSQSQDMYQDTAYGVNVGNKKDYGLYWVKSQGYDIVLEIHLDAAGESASGGHVIISSQFNADTIDKSIQDVIKNNLGQIRGVTPRNDLLNVNVSAEININYRLSELGFITNKNDMDWIKKNYDLYSKLIAGAIHGK”, the protein production was “failed”.

For “MPSLQDLYAAFRRIAPYTHRTPLLTSRLLDGLLGKRLLLKAEHLQKTGSFKARGALSKALALENPKGLLAVSSGNHAQGVAYAAQVLGVKALVVMPEDASPYKKACARAYGAEVVDRGVTAKNREEVARALQEETGYALIHPFDDPLVIAGQGTAGLELLAQAGRMGVFPGAVLAPVGGGGLLAGLATAVKALSPTTLVLGVEPEAADDAKRSLEAGRILRLEAPPRTRADGVRTLSLGERTFPILRERVDGILTVSEEALLEAERLLFTRTKQVVEPTGALPLAAVLEHGARLPQTLALLLSGGNRDFSP”, the protein production was “not failed”.

For “MKTIHIYTNGRFEEKQSGIVREFPLVLHVNGREIATLISSPHDLRFLVAGFLRNQGFVERAEDFHMLAVCDDFGIANARIRGELPERLKPVLTSGCGTGVTFTLETPKIPPPLALPAITTDAVFRLMEELARRADNYRSHGGIHSAAVGDGEGNLLLFAEDIGRHNTLDRIAGEALFKGIDLAGTILVTSGRVSTEMAAKCARLGIALIASRTSATDMAVKMCDEAGIPLIGYVRGGKFTVYAHHERLAMAPPVGAIHELPLPASAQGRRIPGITGVILAGGQSRRMGSNKALLPYKGGRFIEAIHRQLAEIFDEVLLVTNNPEQYDFLPCRKVADIHPGMGALAGIHAGLHHAANPAAFMVACDMPYLNSDLIRHLATLADPGGVLIPESPAGLEPLHAVYGKGCLAAIETTLLSGERRIVSFFGRTNVNRVNAEQVALFDPDYATFSNINTPVDYYRLRDGERDELDAALGADRIAGLEHHHHHH”, the protein production was “failed”.

With “MRKTYKYRLYTCERNKHLVESIELASVVWNHFVALTRRYYEIYGEYPGYYALKKHLTKLKQRDKGHWYDLNSQALQNVIERLDQAYQRFFEIDSAGRPGFKKREKYTSFTLTQTGWKLLGGNRVRIQNHNYKFVKSRPIKGEIKTVTIKRDACGYLWICFSVEKEPPTPELPRTGNAVGLDFGLKDFLVTSDGDRIQAPEPLQESLEEVQDLHKKLSRKERGSNNRKEAKRRLAKKYRQIDNQRKDFHFKLARRLFSRYDVVCIEELNVGAMKELWGRKVSDLGFASFVKILEHVAQKEGKEVRKIDRWFPSSQTCSDCSHRYEDLSLEERTWTCEECGSLHDRDLNAARNVLERALSSAEAGVRPSGAAARVARSS” the protein production was “failed”.

With “QKSVRVGISFDISEQKEGEALFEIISQNVTDVIWVYDLKLNRFRYISPSVEAMRGLPKEEAEAMSLEETLTPSSYQRAMQILEGERLRLSNPSHREIKIFSEFFDQYTHDGEVIETEVTARVVQDEG” the protein production was “failed”.

In the case of “MRATACWFVSGLVTFKSENKTRRLVSATHNSRPSMSRVRSWILVVGVLVGAVGGCAEPQDGRGPATADSIAATAPGTDVVGAPLDASGDTLRMGRPTPVTTRPGYDNQPAFLPDGSGLVWTAIHDGQADVYRKIEDEGGPAPVTDTPESEFSPTPRPGGALTLVRVEADGRQRLWRYRADGTPDAPVLPDADSVGYHAWLDSSRVALFVLGAPPTLHVANVKSGTDTVVARRIGRSLQSVPGRADVSFVQVGPDSSVAIHRLDGASLTTRRLTEAPTNAPTGDHAWTPGGHLLMTTEDSLVAWRRGRADWRPVAALDTMDVSRLAVSPSGDRLAMVAAE”, the protein production is reported as “failed”.
